Experimental data from patent publication US7994123B2, “Hybrid proteins with ErbB4 extracellular domain and neuregulin heparin-binding domain for targeting” (Wayne State University, priority 2004, dated 2011).
“And” between values parts separate entries of the source, which are not always exact repeats. Equal values may be shown once.

Legend:
[1] = Heparin column binding; details: for binding to heparin column: conditioned media, anti-HA western blot of flow through and elution; for NaCl concentration needed to elute from heparin column: elution with increasing NaCl (0.25-1 M)
Description: (§1) 4. Cell culture: The L6 cells were cultured in DMEM supplemented with 10% fetal calf serum, 1 mM L-glutamine and 1000 U/ml penicillin/streptomycin at 37° C. in 10% CO2 incubator. The HEK293 cells were cultured in DMEM with 10% fetal calf serum, 1 mM L-glutamine, 2 mM sodium pyruvate, 0.1 mM non-essential amino acids, 1000 U/ml penicillin/streptomycin at 37° C. in 10% CO2 incubator. The selective antibiotics Geneticin 200 μg/ml (Gibco-Invitrogen) was added to the cell cultures of stably transfected HEK293 cells harboring the NRG antagonists. 5. Stable expression of NRG antagonists in HEK293 cells: HEK293 cells were cultured in […] flasks to 80% confluence and transfected with the four NRG antagonist constructs using lipofectamine 2000 (Invitrogen Life Science) as instructed. The antibiotic Geneticin was then added at a concentration of 400 μg/ml to the transfected HEK293 cells to select the positive antagonist transfected cells. After three weeks of Geneticin selection, the transfected HEK293 cells were diluted and plated in 96 well plates to yield single positive clones. The single clones that expressed the highest levels of antagonists (confirmed by western blot using HA antibody) were then maintained in culture media with 200 μg/ml Geneticin. Optimem I (Gibco-Invitrogen) was applied to the stably transfected NRG antagonist cell lines at 37° C. in 10% CO2 incubator for 2 days. The conditioned Optimem I media was then used in the following experiments. 6. Heparin column binding: The conditioned media containing the four NRG antagonists was passed through the heparin column to allow binding to heparin. The excessive unbound antagonist proteins were washed off by 1×PBS twice. The antagonist proteins were then eluted by increasing concentration of NaCl (0.25, 0.3, 0.4, 0.5, 0.6 and 1M). The flow through solution from each step was examined by anti-HA western blots, as described later, to determine heparin binding ability of the antagonists. 7. Purification and quantitation of recombinant proteins: The NRG antagonists were purified by anti-HA affinity matrix (3F10) (rat mAb) according to manufacturer's instructions. Briefly, the column was equilibrated with buffer containing 20 mM Tris pH 7.5, 0.1 M NaCl, 0.1 M EDTA, and each antagonist in conditioned medium was applied individually to the anti-HA affinity matrix. Excess unbound antagonist proteins were washed with 20 volume of washing buffer (20 mM Tris pH 7.5, 0.1 M NaCl, 0.1 M EDTA and 0.05% Tween 20). The bound NRG antagonists were eluted with 0.1 M glycine (pH 2). The purified recombinant protein was then quantified using a BioRad Protein Assay kit (Bio-Rad, Hercules, Calif.) 8. Silver stain: Both the conditioned media and the purified NRG antagonists were resolved on 7.5% reducing SDS-polyacrylamide gels. The gel was fixed with 30% ethanol and 10% acetic acid for 30 min. 10% ethanol and ultrapure water were used subsequently to wash the gel before staining with SilverSNAP stain solution with enhancer for 30 min. The gel was then developed using SilverSNAP developer solution with enhancer. 5% acetic acid was used to stop the reaction when the desired band intensity was reached. The gel was dried on filter paper using a vacuum gel dyer. 9. […] Positive control L6 cells were treated with 50 pM NRG alone. L6 cell lysates were prepared and run on 5% SDS-PAGE gel. Western blots of erbB receptor phosphorylation were performed using 4G10 antibody. 10. Western blot: Western blots were performed on both conditioned NRG antagonist media and the antagonist-treated L6 cells. The antagonist proteins and the L6 cells were solubilized in SDS sample buffer and boiled for 5 min as described above (see also Li et al., supra). The NRG antagonists run on 7.5% SDS-PAGE gel were detected by anti-HA mAb HA.11. Phosphotyrosine mAb 4G10 was used to detect phosphorylated erbB receptor (p185) in L6 cell western blot analysis following resolution on overrun 5% reducing SDS-polyacrylamide gels. […]

[2] = test system: erbB receptor phosphorylation (p185) in L6 cells; experiment: L6 assay: block of NRG-induced erbB receptor phosphorylation (p185); assay type: cell-based; details: for effect on NRG-induced p185 erbB receptor phosphorylation: comparable amounts of antagonist with 50 pM NRG (IG-EGF form), 45 min
Description: as §1

Molecule	binding to heparin column [1]	NaCl concentration needed to elute from heparin column [1]	effect on NRG-induced p185 erbB receptor phosphorylation [2]	sustained blockade of neuregulin signaling (p185 phosphorylation) ([2]; preincubated with L6 muscle cells one hour, thoroughly washed before adding recombinant neuregulin)
B4-HBD-HA: fusion polypeptide: erbB4 extracellular domain with NRG heparin-binding domain C-terminal, HA tag (protein, left off: small tags and cut ends) VCAGTENKLSSLSDLEQQYRALRKYYENCEVVMGNLEITSIEHNRDLSFLRSVREVTGYVLVALNQFRYLPLENLRIIRGTKLYEDRYALAIFLNYRKDGNFGLQELGLKNLTEILNGGVYVDQNKFLCYADTIHWQDIVRNPWPSNLTLVSTNGSSGCGRCHKSCTGRCWGPTENHCQTLTRTVCAEQCDGRCYGPYVSDCCHRECAGGCSGPKDTDCFACMNFNDSGACVTQCPQTFVYNPTTFQLEHNFNAKYTYGAFCVKKCPHNFVVDSSSCVRACPSSKMEVEENGIKMCKPCTDICPKACDGIGTGSLMSAQTVDSSNIDKFINCTKINGNLIFLVTGIHGDPYNAIEAIDPEKLNVFRTVREITGFLNIQSWPPNMTDFSVFSNLVTIGGRVLYSGLSLLILKQQGITSLQFQSLKEISAGNIYITDNSNLCYYHTINWTTLFSTINQRIVIRDNRKAENCTAEGMVCNHLCSSDGCWGPGPDQCLSCRRFSRGRICIESCNLYDGEFREFENGSICVECDPQCEKMEDGLLTCHGPGPDNCTKCSHFKDGPNCVEKCPDGLQGANSFIFKYADPDRECHPCHPNCTQGCNGPTSHDCIYYPWTGHSTLPQHAKNSAAGSQSPALPPRLKEMKSQESAAGSKLVLRCETSSEYSSLRFKWFKNGNELNRKNKPQNIKIQKKPGKSELRINKASLADSGEYMCKVISKLGNDSASANITIVE	bound the heparin column	0.4 to 0.5 M	dramatically reduced erbB receptor activation	
B4-HA: extracellular domain of erbB4 expressed alone without the HBD, HA tag (control) (protein, left off: small tags and cut ends) VCAGTENKLSSLSDLEQQYRALRKYYENCEVVMGNLEITSIEHNRDLSFLRSVREVTGYVLVALNQFRYLPLENLRIIRGTKLYEDRYALAIFLNYRKDGNFGLQELGLKNLTEILNGGVYVDQNKFLCYADTIHWQDIVRNPWPSNLTLVSTNGSSGCGRCHKSCTGRCWGPTENHCQTLTRTVCAEQCDGRCYGPYVSDCCHRECAGGCSGPKDTDCFACMNFNDSGACVTQCPQTFVYNPTTFQLEHNFNAKYTYGAFCVKKCPHNFVVDSSSCVRACPSSKMEVEENGIKMCKPCTDICPKACDGIGTGSLMSAQTVDSSNIDKFINCTKINGNLIFLVTGIHGDPYNAIEAIDPEKLNVFRTVREITGFLNIQSWPPNMTDFSVFSNLVTIGGRVLYSGLSLLILKQQGITSLQFQSLKEISAGNIYITDNSNLCYYHTINWTTLFSTINQRIVIRDNRKAENCTAEGMVCNHLCSSDGCWGPGPDQCLSCRRFSRGRICIESCNLYDGEFREFENGSICVECDPQCEKMEDGLLTCHGPGPDNCTKCSHFKDGPNCVEKCPDGLQGANSFIFKYADPDRECHPCHPNCTQGCNGPTSHDCIYYPWTGHSTLPQHAKN	did not		little effect	
B4: purified His-tagged erbB4 extracellular domain lacking the HBD (protein, left off: small tags and cut ends, purified His-tagged erbB4 extracellular domain lacking the HBD) VCAGTENKLSSLSDLEQQYRALRKYYENCEVVMGNLEITSIEHNRDLSFLRSVREVTGYVLVALNQFRYLPLENLRIIRGTKLYEDRYALAIFLNYRKDGNFGLQELGLKNLTEILNGGVYVDQNKFLCYADTIHWQDIVRNPWPSNLTLVSTNGSSGCGRCHKSCTGRCWGPTENHCQTLTRTVCAEQCDGRCYGPYVSDCCHRECAGGCSGPKDTDCFACMNFNDSGACVTQCPQTFVYNPTTFQLEHNFNAKYTYGAFCVKKCPHNFVVDSSSCVRACPSSKMEVEENGIKMCKPCTDICPKACDGIGTGSLMSAQTVDSSNIDKFINCTKINGNLIFLVTGIHGDPYNAIEAIDPEKLNVFRTVREITGFLNIQSWPPNMTDFSVFSNLVTIGGRVLYSGLSLLILKQQGITSLQFQSLKEISAGNIYITDNSNLCYYHTINWTTLFSTINQRIVIRDNRKAENCTAEGMVCNHLCSSDGCWGPGPDQCLSCRRFSRGRICIESCNLYDGEFREFENGSICVECDPQCEKMEDGLLTCHGPGPDNCTKCSHFKDGPNCVEKCPDGLQGANSFIFKYADPDRECHPCHPNCTQGCNGPTSHDCIYYPWTGHSTLPQHAKN				no sustained effects
HBD-S-B4-HA: fusion polypeptide: NRG heparin-binding domain, glycosylated spacer, erbB4 extracellular domain, C-terminal HA tag (protein, left off: small tags and cut ends) QSGYKKKERGSGKKPESAAGSQSPALPPRLKEMKSQESAAGSKLVLRCETSSEYSSLRFKWFKPNGNELNRKNKQNIKIQKKPGKSELRINKASLADSGEYMCKVISKLGNDSASANITIVESNEIITGMPASTEGAYVSSESPIRISVSTEGANTSSSTSTSTTGTSGTQSVCAGTENKLSSLSDLEQQYRALRKYYENCEVVMGNLEITSIEHNRDLSFLRSVREVTGYVLVALNQFRYLPLENLRIIRGTKLYEDRYALAIFLNYRKDGNFGLQELGLKNLTEILNGGVYVDQNKFLCYADTIHWQDIVRNPWPSNLTLVSTNGSSGCGRCHKSCTGRCWGPTENHCQTLTRTVCAEQCDGRCYGPYVSDCCHRECAGGCSGPKDTDCFACMNFNDSGACVTQCPQTFVYNPTTFQLEHNFNAKYTYGAFCVKKCPHNFVVDSSSCVRACPSSKMEVEENGIKMCKPCTDICPKACDGIGTGSLMSAQTVDSSNIDKFINCTKINGNLIFLVTGIHGDPYNAIEAIDPEKLNVFRTVREITGFLNIQSWPPNMTDFSVFSNLVTIGGRVLYSGLSLLILKQQGITSLQFQSLKEISAGNIYITDNSNLCYYHTINWTTLFSTINQRIVIRDNRKAENCTAEGMVCNHLCSSDGCWGPGPDQCLSCRRFSRGRICIESCNLYDGEFREFENGSICVECDPQCEKMEDGLLTCHGPGPDNCTKCSHFKDGPNCVEKCPDGLQGANSFIFKYADPDRECHPCHPNCTQGCNGPTSHDCIYYPWTGHSTLPQHAKN	bound the heparin column	> 1 M and 1 M	dramatically reduced erbB receptor activation	
HBD-B4-HA: fusion polypeptide: NRG heparin-binding domain N-terminal to erbB4 extracellular domain, no spacer, HA tag (protein, left off: small tags and cut ends) SAAGSQSPALPPRLKEMKSQESAAGSKLVLRCETSSEYSSLRFKWFKNGNELNRKNKPQNIKIQKKPGKSELRINKASLADSGEYMCKVISKLGNDSASANITIVEVCAGTENKLSSLSDLEQQYRALRKYYENCEVVMGNLEITSIEHNRDLSFLRSVREVTGYVLVALNQFRYLPLENLRIIRGTKLYEDRYALAIFLNYRKDGNFGLQELGLKNLTEILNGGVYVDQNKFLCYADTIHWQDIVRNPWPSNLTLVSTNGSSGCGRCHKSCTGRCWGPTENHCQTLTRTVCAEQCDGRCYGPYVSDCCHRECAGGCSGPKDTDCFACMNFNDSGACVTQCPQTFVYNPTTFQLEHNFNAKYTYGAFCVKKCPHNFVVDSSSCVRACPSSKMEVEENGIKMCKPCTDICPKACDGIGTGSLMSAQTVDSSNIDKFINCTKINGNLIFLVTGIHGDPYNAIEAIDPEKLNVFRTVREITGFLNIQSWPPNMTDFSVFSNLVTIGGRVLYSGLSLLILKQQGITSLQFQSLKEISAGNIYITDNSNLCYYHTINWTTLFSTINQRIVIRDNRKAENCTAEGMVCNHLCSSDGCWGPGPDQCLSCRRFSRGRICIESCNLYDGEFREFENGSICVECDPQCEKMEDGLLTCHGPGPDNCTKCSHFKDGPNCVEKCPDGLQGANSFIFKYADPDRECHPCHPNCTQGCNGPTSHDCIYYPWTGHSTLPQHAKN	did not		little effect	
